Test results published in article PMC7921410, “Structure of mammalian Mediator complex reveals Tail module architecture and interaction with a conserved core” (Nature Communications, 2021).

T1: MED15 (mouse (Mus musculus; endogenous in CH12), UniProt Q924H2 1-789)
T1 construct: MED15, Mus musculus, endogenous lower Tail subunit of Mediator; only the C-terminal portion (from residue 620) is seen in the map; source: endogenous, CH12 mouse B lymphoma nuclear extract; immunopurified as part of Mediator (FLAG M2 agarose, FLAG peptide elution)
T1 sequence (looked up): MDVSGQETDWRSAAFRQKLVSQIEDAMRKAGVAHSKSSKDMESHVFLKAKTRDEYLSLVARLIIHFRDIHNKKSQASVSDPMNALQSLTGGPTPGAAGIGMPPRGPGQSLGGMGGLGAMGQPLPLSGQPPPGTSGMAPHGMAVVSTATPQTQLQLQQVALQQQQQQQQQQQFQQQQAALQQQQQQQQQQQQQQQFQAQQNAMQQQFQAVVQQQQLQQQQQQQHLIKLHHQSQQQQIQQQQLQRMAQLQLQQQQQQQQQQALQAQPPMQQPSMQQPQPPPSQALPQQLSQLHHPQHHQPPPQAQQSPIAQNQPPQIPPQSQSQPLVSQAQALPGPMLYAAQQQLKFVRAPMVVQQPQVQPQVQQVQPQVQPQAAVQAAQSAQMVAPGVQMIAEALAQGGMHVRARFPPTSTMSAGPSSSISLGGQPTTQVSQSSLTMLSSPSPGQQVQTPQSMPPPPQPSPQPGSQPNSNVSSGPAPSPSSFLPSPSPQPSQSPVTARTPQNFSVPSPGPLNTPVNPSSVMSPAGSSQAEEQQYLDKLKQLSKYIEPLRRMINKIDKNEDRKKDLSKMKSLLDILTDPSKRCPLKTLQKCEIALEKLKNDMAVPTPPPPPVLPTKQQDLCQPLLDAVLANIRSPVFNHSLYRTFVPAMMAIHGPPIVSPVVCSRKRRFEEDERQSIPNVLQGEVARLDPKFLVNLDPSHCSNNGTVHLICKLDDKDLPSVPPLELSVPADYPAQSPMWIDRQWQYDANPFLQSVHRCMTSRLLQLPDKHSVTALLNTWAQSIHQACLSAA

T2: MED16 (mouse (Mus musculus; endogenous in CH12), UniProt Q6PGF3 1-828)
T2 construct: MED16, Mus musculus, endogenous lower Tail subunit of Mediator; source: endogenous, CH12 mouse B lymphoma nuclear extract; immunopurified as part of Mediator (FLAG M2 agarose, FLAG peptide elution)
T2 sequence (looked up): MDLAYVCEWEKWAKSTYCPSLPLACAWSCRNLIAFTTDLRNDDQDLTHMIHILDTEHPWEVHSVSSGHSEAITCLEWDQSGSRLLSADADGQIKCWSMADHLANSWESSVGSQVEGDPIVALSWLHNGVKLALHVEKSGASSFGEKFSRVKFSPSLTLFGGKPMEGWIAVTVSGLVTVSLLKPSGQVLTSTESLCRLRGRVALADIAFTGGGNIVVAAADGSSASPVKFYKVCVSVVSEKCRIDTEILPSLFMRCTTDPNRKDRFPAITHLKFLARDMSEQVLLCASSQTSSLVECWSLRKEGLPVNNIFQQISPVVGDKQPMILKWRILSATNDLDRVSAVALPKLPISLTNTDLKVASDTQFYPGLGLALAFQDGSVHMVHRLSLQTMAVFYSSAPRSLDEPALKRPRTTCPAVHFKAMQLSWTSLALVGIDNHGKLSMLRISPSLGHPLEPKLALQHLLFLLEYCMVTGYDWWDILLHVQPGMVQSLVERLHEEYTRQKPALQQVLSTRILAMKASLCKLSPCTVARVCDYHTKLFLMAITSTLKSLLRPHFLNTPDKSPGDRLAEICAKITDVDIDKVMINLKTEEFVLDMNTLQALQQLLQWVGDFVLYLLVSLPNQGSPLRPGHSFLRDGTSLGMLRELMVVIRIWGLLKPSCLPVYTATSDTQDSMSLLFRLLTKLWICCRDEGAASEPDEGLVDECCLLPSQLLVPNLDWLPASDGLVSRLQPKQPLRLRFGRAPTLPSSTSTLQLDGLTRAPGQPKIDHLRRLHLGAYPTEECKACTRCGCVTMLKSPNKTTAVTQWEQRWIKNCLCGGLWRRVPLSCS

B1: MED29 (natural protein, mouse (Mus musculus; endogenous in CH12), UniProt Q9DB91 1-199, looked up)
chain: MAAPQPQAAAVSSASGVSGPGSAGGPGPQQQPQPTQLVGSAQSGLLQQQQQDFDPVQRYKMLIPQLKESLQTLMKVAAQNLIQNTNIDNGQKSSDAPLQRFDKCLEEFYALCDQLELCLRLAHECLSQSCDSAKHSPTLVPTATKPDAVQPDSLPYPQYLAVIKAQITCAKDIHTALLDCANKVTGKTTAPSTGPGGSL
notes: MED29, Mus musculus, endogenous upper Tail subunit of Mediator; source: endogenous, CH12 mouse B lymphoma nuclear extract; immunopurified as part of Mediator (FLAG M2 agarose, FLAG peptide elution)
B2: MED27 (natural protein, mouse (Mus musculus; endogenous in CH12), UniProt Q9DB40 1-311, looked up)
chain: MADVLSVGVNLEAFSQAISAIQALRSSVSRVFDCLKDGMRNKETLEGREKAFIANFQDNLHSVNRDLNELERLSNLVGKPSENHPLHNSGLLSLDPVQDKTPLYSQLLQAYKWSNKLQYHAGLASGLLNQQSLKRSANQMGVSAKRRPKAQPTTLVLPPQYVDDVISRIDRMFPEMSIHLSRPNGTSAMLLVTLGKVLKVIVVMRSLFIDRTIVKGYNESVYTEDGKLDIWSKSSYQVFQKVTDHATTALLHYQLPQMPDVVVRSFMTWLRSYIKLFQAPCQRCGKFLQDGLPPTWRDFRTLEAFHDTCRQ
notes: MED27, Mus musculus, endogenous upper Tail subunit of Mediator; source: endogenous, CH12 mouse B lymphoma nuclear extract; immunopurified as part of Mediator (FLAG M2 agarose, FLAG peptide elution)
B3: MED17 (natural protein, mouse (Mus musculus; endogenous in CH12), UniProt Q8VCD5 1-649, looked up)
chain: MSGVRAVRISIESACEKQVQEVGLDGTETYLQPLSMSQNLARLAQRIDFSQGSGSEEEEAAGPDGDAPDWGGAGADQDDEEGLVKFQPSLWPWDSVRNNLRSALTEMCVLYDVLSIVRDKKFMTLDPVSQDALPPKQSPQTLQLISKKKSLAGAAQILLKGAERLTKSVAENQENKLQRDFNSELLRLRQHWKLRKVGDKILGDLSYRSAGSLFPHHGTFEVIKNTDIDLDKKIPEDYCPLDVQIPSDLEGSAYIKVSIQKQAPDIGDLGTVNLFKRPLPKSKPGSPHWQTKLEAAQNVLLCKEIFAQLSREAVQIKSQIPHIVVKNQIISQPFPSLQLSISLCHSSDDKKSQKCAAEKPGQEDHLYVLEHNLHLLIREFHKQTLSSIVMPHPASAPFGHKRMRLSGPQAFDKNEINSIQSTEGLLEKIIKQAKHIFLRSRTAATIDSLASRIEDPQIQAHWSNINDVYESSVKVLITSQGYEQICKSIQLQLNIGVEQVRVVHRDGRVIMLSHQEQELQDFLLSQMSQHQVHAVQQLAKVMGWQVLSFSNHVGLGPIESIGNASAITVASPSGDYAISVRNGPESGSKIMVQFPRNQCKDLPKSDVLQDSKWSHLRGPFKEVQWNKMEGRNFVYKMELLMSALSPCLL
notes: MED17, Mus musculus, endogenous Head module scaffold subunit of Mediator; source: endogenous, CH12 mouse B lymphoma nuclear extract; immunopurified as part of Mediator (FLAG M2 agarose, FLAG peptide elution)
B4: MED24 (natural protein, mouse (Mus musculus; endogenous in CH12), UniProt Q99K74 1-987, looked up)
chain: MKVVNLKQAILQAWKERWSDYQWAINMKKFFPKGATWDILNLAEALLEQAMIGPSPNPLILSYLKYAISSQMVSCSSVLTAISKFDDFSRDLCVQALLDIMDMFCDRLSCHGKAEECIGLCRALLSALHWLLRCTAASAERLQEGLEAGTPAPGEKQLALCLQCLEKTLSSTKNRALLHIAKLEEASSWTAIEHSLLKLGEILANLSNPQLRSQAERCGTLIRSIPSMLSVHSEQLHKTGFPTIHALILLEGTMNLTGEMQPLVEQLMMVKRMQHIPTPLFVLEIWKACFVGLIESPEGTQELKWTAFTYLKIPQVLVKLKKYFHGEKDFTEDVNCAFEFLLKLTPLLDKADQRCNCDCTNFLLQECNKQGLLSEVNFASLVGKRTADRDPQLKSSENANIQPNPGLILRAEPTVTNILKTMDADHSKSPEGLLGVLGHMLSGKSLDLLLAAAAATGKLKSFARKFINLNEFTTHGSGESTKTASVRALLFDISFLMLCHVAQTYGSEVILSESSSGEEVPFFETWMQTCMPEEGKILNPDHPCFRPDSTKVESLVALLNNSSEMKLVQMKWHEACLSISAAILEILNAWENGVLAFESIQKITDNIKGKVCSLAVCAVAWLVAHVRMLGLDEREKSLQMIRQLAGPLYSENTLQFYNERVVIMNSILEHMCADVLQQTATQIKFPSTGVDTMPYWNLLPPKRPIKEVLTDIFAKVLEKGWVDSRSIHILDTLLHMGGVYWFCNNLIKELLKETRKEHTLRAVQLLYSIFCLDMQQVTLVLLGHILPGLLTDSSKWHSLMDPPGTALAKLAVWCALSSYSSHKGQASSRQKKRHREDIEDYVSLFPVEDMQPSKLMRLLSSSDDDANILSSPTDRSMNSSLSASQLHTVNMRDPLNRVLANLFLLISSILGSRTAGPHTQFVQWFMEECVGCLEQDSRGSILQFMPFTTVSELVKVSAMSSPKVVLAITDLSLPLGRQVAAKAIAAL
notes: MED24, Mus musculus, endogenous lower Tail subunit of Mediator; source: endogenous, CH12 mouse B lymphoma nuclear extract; immunopurified as part of Mediator (FLAG M2 agarose, FLAG peptide elution)

Experiments:
Test in all cases: cryo-EM structure; endogenous mouse Mediator immunopurified from CH12 nuclear extract through 3×FLAG-MED19 or 3×FLAG-MED25; eluted in 50 mM HEPES pH 7.9, 100 mM KCl, 5% glycerol, 1 mM EDTA, 0.005% NP-40; map at 4.0 Å overall, focused refinement of the MED1 and knob/hook ends (6-10 Å)
Conditions in all cases: both partners purified
MED27 = target: B2
MED15 = target: T1, MED15
MED16 = target: T2, MED16
MED17 = target: B3
MED1 = target: T3, MED1 (mouse (Mus musculus; endogenous in CH12), UniProt Q925J9 1-1575)
T3 construct: MED1, Mus musculus, endogenous Middle module subunit of Mediator; only a partial model of the folded N-terminal portion was built; Partial model only; this part of the map is at about 6-8 Å; also called Mediator subunit MED1; source: endogenous, CH12 mouse B lymphoma nuclear extract; immunopurified as part of Mediator (FLAG M2 agarose, FLAG peptide elution)
T3 sequence (Q925J9 whole entry): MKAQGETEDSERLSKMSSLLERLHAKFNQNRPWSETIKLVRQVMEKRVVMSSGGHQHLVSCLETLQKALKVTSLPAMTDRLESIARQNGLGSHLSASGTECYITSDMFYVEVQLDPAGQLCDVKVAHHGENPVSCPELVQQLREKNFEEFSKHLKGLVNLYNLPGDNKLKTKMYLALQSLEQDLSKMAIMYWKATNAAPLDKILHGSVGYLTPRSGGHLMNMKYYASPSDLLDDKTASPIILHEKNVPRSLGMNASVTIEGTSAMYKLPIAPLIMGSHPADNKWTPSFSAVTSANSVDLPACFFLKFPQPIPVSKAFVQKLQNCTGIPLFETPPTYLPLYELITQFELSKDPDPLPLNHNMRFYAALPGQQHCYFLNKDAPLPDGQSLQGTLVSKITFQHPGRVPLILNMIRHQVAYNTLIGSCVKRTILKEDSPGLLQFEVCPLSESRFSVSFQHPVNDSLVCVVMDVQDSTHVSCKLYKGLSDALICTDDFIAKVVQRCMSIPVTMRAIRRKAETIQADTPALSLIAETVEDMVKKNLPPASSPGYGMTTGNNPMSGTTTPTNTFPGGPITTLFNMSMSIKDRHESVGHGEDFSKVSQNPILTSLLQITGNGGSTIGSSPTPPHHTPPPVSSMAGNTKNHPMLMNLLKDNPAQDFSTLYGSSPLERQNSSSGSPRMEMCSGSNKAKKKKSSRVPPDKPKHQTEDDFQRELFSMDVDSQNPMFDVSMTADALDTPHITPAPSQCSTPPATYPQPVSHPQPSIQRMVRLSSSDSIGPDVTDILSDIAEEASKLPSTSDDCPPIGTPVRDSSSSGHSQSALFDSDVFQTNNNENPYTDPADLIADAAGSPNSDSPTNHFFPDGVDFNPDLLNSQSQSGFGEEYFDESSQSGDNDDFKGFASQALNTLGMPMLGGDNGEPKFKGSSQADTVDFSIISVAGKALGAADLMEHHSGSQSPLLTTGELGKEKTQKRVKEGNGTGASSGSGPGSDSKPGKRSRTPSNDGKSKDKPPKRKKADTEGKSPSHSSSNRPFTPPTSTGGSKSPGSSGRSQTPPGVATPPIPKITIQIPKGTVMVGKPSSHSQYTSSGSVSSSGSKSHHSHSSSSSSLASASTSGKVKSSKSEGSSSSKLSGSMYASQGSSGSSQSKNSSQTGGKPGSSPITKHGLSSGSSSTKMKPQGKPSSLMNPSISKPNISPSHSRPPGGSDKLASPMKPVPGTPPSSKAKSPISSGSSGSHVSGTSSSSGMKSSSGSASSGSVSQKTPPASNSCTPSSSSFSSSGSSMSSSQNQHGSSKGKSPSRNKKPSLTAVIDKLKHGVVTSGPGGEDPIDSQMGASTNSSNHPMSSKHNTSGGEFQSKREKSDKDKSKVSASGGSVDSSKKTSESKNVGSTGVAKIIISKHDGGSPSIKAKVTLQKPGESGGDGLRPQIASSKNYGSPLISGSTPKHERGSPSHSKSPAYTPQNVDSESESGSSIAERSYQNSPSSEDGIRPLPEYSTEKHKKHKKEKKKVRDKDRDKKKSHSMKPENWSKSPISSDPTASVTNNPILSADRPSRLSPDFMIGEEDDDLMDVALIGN

| binding result (MED27) | binding result (MED15) | binding result (MED16) | binding result (MED17) | binding result (MED1) | Binder |
| --- | --- | --- | --- | --- | --- |
| binds | binds | binds |  |  | B1 |
|  | binds | binds | binds |  | B2 |
|  | binds |  |  |  | B3 |
|  |  |  |  | binds | B4 |
